This is an account of results in publication PMC3764174.

The target of this assay is PCNA3_(N106R)-P450cam fusion protein (Sulfolobus solfataricus | Pseudomonas putida).

On to PCNA2-G4S(P5)4G4S-PdX, for which the substrate-dependent O2 consumption rate (monooxygenase activity) of PUPPET-P4 at 18 nM complex, 25°C stood at 6.5 µM/min.
